Reference: the RNAGym collection of RNA variant scans (doi:10.1073/pnas.2313332121)

B1: TPR t1 (parent)
chain: GACCAAUCUGCCCUCAGAGCUCGAGAACAUCUUCGGAUGCAGAGGAGGCAGGCUUCGGUGGCGCGAUAGCGCCAACGUCCUCAACCUCCAAUGCAUCCCACCACAUGAUGAUGCCUGAAGAGCCUUGGUUUUUUG

Variants of: B1
Assay: polymerase ribozyme fitness, log enrichment relative to wild type (log ratio); higher = more active; in vitro selection for triplet polymerase activity
Procedure, shortened: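 Only genotypes with ≥10 input reads and ≥1 read per output were kept after Illumina sequencing of input and output libraries. These libraries were PCR-built, transcribed mutants of each subunit of a heterodimeric triplet polymerase ribozyme, each put through one triplicate in vitro selection round with frozen incubation at −7 °C, gel excision of extended constructs, streptavidin-bead capture and RT-PCR. Fitness is a logarithmic ratio of genotype enrichment to wild-type enrichment, from inverse-variance-weighted replicate averages, with the logarithm in base 2.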

Point of comparison: GACCAAUCUGCGCUCAGAGCUCGAGAACAUCUUAGGAUGCAGAGGAGGCAGGCUUCGGUGGCGCGAUAGCGCCAACGUCCUCAACCUCCAAUGCAUCCCACCACAUGAUGAUGCCUGAAGAGCCUUGGUUUUUUG [C12G C34A], “polymerase ribozyme fitness (log ratio)” value -2.33. Against it:
- GACCAAUCUGCGCUCAGAGCUCGAGAACAUCUUCGGAUGCAGAGGAGGCAGGCUUCGGUGGCGCGCUAGCGCCAACGUCCUCAACCUCCAAUACAUCCCACCAUAUGAUGAUGCCUGAAGAGCCUUGGUUUUUUG [C12G A66C G93A C104U] — higher, -1.71
- GACCAAUCUGCGCUCAGAGCUCGAGAACAUCUUCGGAUGCAGAGGAGGCAGGCUUCGGUGGCGCGAUAGCGCCUACGUCUUCAACCUCCAAUGCAUCCCACCACAUGAUGAUGCCUGAAGAGCCUUGGUUUUUUG [C12G A74U C80U] — higher, -1.1
- GACCAAUCUGCGCUCAGAGCUCGAGAACAUCUUCGGAUGCAGAGGAGGCAGGCUUCGGUGGCGCGAUAGCGCCAUCGUCCUCAACCUCCAAUGGAUCCCACCACAUGAUGAUGCCUGAAGAGCCUUGGUUUUUUG [C12G A75U C94G] — higher, -1.33
- GACCAAUCUGCGCUCAGAGCUCGAGAACAUCUUCGGAUGCAGAGGAGGCAGGCUUCGGUGGCGCGAUAGCGCCAACGUCCUCAACCUCCAAUGCAUCCCACCACAUGAUGAUGCCUGAUGAGCCUUGGUUUUUUG [C12G A119U] — higher, 0.00185
- GACCAAUCUGCGCUCAGAGCUCGAGAACAUCUUCGGAUGCAGAGGAGGCAGGCUUCGGUGGCGCGAUAGCGCCAACGUCCUCAACCUCCAAUGCAUCCCACCACAUGAUGAUGCCUGAAGUGCCUUGGUUUUUUG [C12G A121U] — higher, 1.78
- GACCAAUCUGCGAUCAGAGCUCGGGAACAUCUUCGGAUGCAGAGGAGGCAGGCUUCGGUGGCGCGAUAGCGCCAACGUCCUCAACCUCCAAUGCAUCCCACCACAGGAUGAUGCCUGAAGAGCAUUGGUUUUUUG [C12G C13A A24G U106G C124A] — higher, -1.63
- GACCAAUCUGCGCUGAGAGCUCGAGAACAUCUUCGGAUGCAGAGGACGCAGGCUUCGGUGGCGCGAUAGCGCCAACGUCCUGAACCUCCAAUGCAUCCCACCACAUGAUGAUGCCUGAAGAGCCUUGGUUUUUUG [C12G C15G G47C C82G] — lower, -4.81
- GACCAAUCUGCGCUUAGAGCUCGAGAACAUAUUCGGAUGCAGAAGAAGCAGGCUUCGGUGGCCCGAUAGCGCCAACGUCCUCAUCCUCCAAUGCAUCCCACCACAUGAUCAUGCCUGAAGAGCCUUGGUUUUUUG [C12G C15U C31A G44A G47A G63C A84U G110C] — lower, -6.78
- GACCAAUCUGCGCUUAGAGCUCGAGAACAUCUUCGGAUGCAGAGGAGACAGGCUUCGGUGACGCGAUAGCGCCAACGUCCGCAACCUCCAAUGCAUCCCACCACAUGAUGAUGCCUGAAGAGUCUUGGUUUUUUG [C12G C15U G48A G61A U81G C123U] — within 0.2 log units, -2.3
- GACCAAUCUGCGCUUAGAGCUCGAGAACAUCUUCGGAUGCAGAGGAGGCAGGCUUCGGUGACGCGAUAGCGCCAACGUCCUCAACCUCCAAUGCAUCCCACCACAUGAUGAUGCCUGAAGAGCCUUGGUUUUUUG [C12G C15U G61A] — higher, -0.982
- GACCAAUCUGCGCUCAGAGCUUGAGAACAUCUUCGGAUGCAGAGGAGGCAGGCUUCGGUGGCGCGAUAGCGCCAACGUCCUCAACCUCCAAUGCAUCCCACCACAUGAUGAUGCCUGAAGAGCCUUGGUUUUUUG [C12G C22U] — lower, -3.18
- GACCAAUCUGCGCUCAGAGCUUGAGAACAUCGUCGGAUGCAGAGGAGGCAGGCUUCGGUGGCGCGAUAUCGGCAACGUCCUCAACCUCCAAUGCAUCCCACAACAUGAUGUUGCCUGAAGAUCCUUGGUUUUUUG [C12G C22U U32G G69U C72G C102A A111U G122U] — lower, -5.99
- GACCAAUCUGCGCUCAGAGCUCGAGAAGAUCUUCGGUUGCAGAGGAGGCAGGCUUCGGUGGCGCGAUAGCGUCAACGUCCUCAACCUCCAAUGCAUCCCACCACAUGAUUAUGCCUGAAGAGCCUUGGUUUUUUG [C12G C28G A37U C72U G110U] — higher, -0.76
- GACCAAUCUGCGCUCAGAGCUCGAGAAGAUCUUCGGUUGCAGAGGAGGCAGGCUUCGGUGGCGCGAUAGCGCCAACGUCCUCAACCUCCAAUGCAUCCCACCACAUGAUUAUGCCUGAAGAGCCUUGGUUUUUUG [C12G C28G A37U G110U] — higher, 0.364
- GACCAAUCUGCGCUCAGAGCUCGAGAAUAUCUUCGGAUGCAGAGGAGGCAGGCUUCGGUGGCGCGAUAGCGUCAACGUCCUCAACCUCCAAUGCAUCCCACCACAUGAUGAUGCCUGAAGAGUCGUGGUUUUUUG [C12G C28U C72U C123U U125G] — higher, -0.502
- GACCAAUCUGCGCUCAGAGCUCGAGAACAUCUUUGGAUGCAGAGGAGGCAGGCUUCGGUGGCGCGAUAGCGCCAACGUCCUCAACCUCCAAUGCAUCCCACCACAUGAUGAUGCCUGAAGAGCCUUGGUUUUUUG [C12G C34U] — lower, -3.31
- GACCAAUCUGCGCUCAGAGCUCGAGAACAUCUUCGGAUGGAGAGAAGGCAGGCUUUGGUGGCGCGAUAGCGCCAACGUCCUCAACCUCCAAUGCAUCCCACCACAUGAUGAUGCCUGAAGAGCCUUGGUUUUUUG [C12G C40G G45A C56U] — higher, -1.34
- GACCAAUCUGCGCUCAGAGCUCGAGAACAUCUUCGGAUGGAGAGGAGGCAGGCUUCGGUGGCACGAUAGCGCCAACGUCCUCAACCUCCAAUGCAUCCCACCACAUGAUGAUGCCUGAAGAGCCUUGGUUUUUUG [C12G C40G G63A] — higher, -1.01
- GACCAAUCUGCGCUCAGAGCUCGAGAACAUCUUCGGAUGUAGAGGAGGCAGGCUUCGGUGGCGCGAUAGCGCCAACGUCCUCAACCUCCAAUGCAUCCCACCACAUGAUGAUGCCUGAAGAGCCUUGGUUUUUUG [C12G C40U] — higher, -1.51
- GACCAAUCUGCGCUCAGAGCUCGAGAACAUCUUCGGAUGUAGAGGAGGCAGGCUUCGGUGGCGCGAUAGCGCCAACGUCCUCAACCUCCAAUGCAUUCCACCACAUGAUGAUGCCUGAAGAGCCUUGGUUUUUUG [C12G C40U C97U] — higher, -1.01
- GACCAAUCUGCGCUCAGAGCUCGAGAACAUCUUCGGAUGCAGAGGAGGCAGGUUUCGGUGGCGCGAUAGCGCCAACGUCCUCAACCUCCAAUCCAUCCCACCACAUGAUGAUGCCUGAAGAGCCUUGGUUUUUUG [C12G C53U G93C] — higher, -0.482
- GACCAAUCUGCGCUCAGAGCUCGAGAACAUCUUCGGAUGCAGAGGAGGCAGGCUUUGGUGGCGCGAUAGCGCCAACGUCCUCAACCUCCAAUGCAUCCCACCACAUGAUGAUGCCUGAAGAGCCUUGGUUUUUUG [C12G C56U] — higher, -0.0119
- GACCAAUCUGCGCUCAGAGCUCGAGAACAUCUUCGGAUGCAGAGGAGGCAGGCUUUGGUGGCGCGAUAGCGCCAACGUCCUCAACCUCCAAUGCAUCCCCCCACAUGAUGAUGCCUUAAGAGCCUUGGUUUUUUG [C12G C56U A100C G117U] — lower, -3.6
- GACCAAUCUGCGCUCAGAGCUCGAGAACAUCUUCGGAUGCAGAGGAGGCAGGCUUCGGUGGCGAGAUAGCGCCAACGUCCUCAACCUCCAAUGCAUCCCACCACAUGAUGAUGCCUGAAGAGCCUUGGUUUUUUG [C12G C64A] — lower, -6.46
- GACCAAUCUGCGCUCAGAGCUCGAGAACAUCUUCGGAUGCAGAGGAGGCAGGCUUCGGUGGCGAGAUAGCGCCAACGUCCUCAACCUCCAAUGCAUCCCACCACAUGAUGAUGCCUGAAGAGCCUUGGUUUUAUG [C12G C64A U133A] — lower, -5.1
- GACCAAUCUGCGCUCAGAGCUCGAGAACAUCUUCGGAUGCAGAGGAGGCAGGCUUCGGUGGCGCGAUAGGGCCAACGUCCUCAACCUCCAAUGCAUCCCACCACAUGAUGAUGCCUGAAGAGCCUUGGUUUUUUG [C12G C70G] — lower, -2.83
- GACCAAUCUGCGCUCAGAGCUCGAGAACAUCUUCGGAUGCAGAGGAGGCAGGCUUCGGUGGCGCGAUAGGGCCAACGUCCUCAAACUCCAAUGCAUCCCACCACAUGAUGAUGCCUGAAGAGCCUUGGUUUUUUG [C12G C70G C85A] — lower, -3.7
- GACCAAUCUGCGCUCAGAGCUCGAGAACAUCUUCGGAUGCAGAGGAGGCAGGCUUCGGUGGCGCGAUAGUGCCAACGUCCUCAACCUCCAAUGCAUCCCACCACAUGAUGAUGCCUGAAGAGCCUUGGUUUUUUG [C12G C70U] — higher, -0.468
- GACCAAUCUGCGCUCAGAGCUCGAGAACAUCUUCGGAUGCAGAGGAGGCAGGCUUCGGUGGCGCGAUAGUGCCAACGUCCUCAACCUCCAAUGCAUCCCACCACAAGAUGAUGCCUGAAGAGCCUUGGUUUUUUG [C12G C70U U106A] — higher, 0.277
- GACCAAUCUGCGCUCAGAGCUCGAGAACAUCUUCGGAUGCAGAGGAGGCAGGCUUCGGUGGCGCGAUAGCGGCAACGUCCUCAACCCCCAAUGCAUCCCACCACAUGAUGAUGCCUGAAGAGCCUUGGUUUUUUG [C12G C72G U87C] — higher, 0.909
- GACCAAUCUGCGCUCAGAGCUCGAGAACAUCUUCGGAUGCAGAGGAGGCAGGCUUCGGUGGCGCGAUAGCGCCAAUGUCCUCAACCUCCAAUGCAUCCCACCACAUGAUGAUGCCUGAAGAGCCUUGGUUUUUUG [C12G C76U] — higher, -0.0382
- GACCAAUCUGCGCUCAGAGCUCGAGAACAUCUUCGGAUGCAGAGGAGGCAGGCUUCGGUGGCGCGAUAGCGCCAACGUACUCAACCUCCAAUGCAUCCCACCACAUGAUGAUGCCUGAAGAGCCUUGGUUUUUUG [C12G C79A] — higher, -1.01
- GACCAAUCUGCGCUCAGAGCUCGAGAACAUCUUCGGAUGCAGAGGAGGCAGGCUUCGGUGGCGCGAUAGCGCCAACGUACUCAACCUCCACUGCAUCCCACCACAUGAUGAUGCCUGAAGAGCCUUGGUUUUUUG [C12G C79A A91C] — lower, -2.84
- GACCAAUCUGCGCUCAGAGCUCGAGAACAUCUUCGGAUGCAGAGGAGGCAGGCUUCGGUGGCGCGAUAGCGCCAACGUCCUCAACGUCGAAUGCAUCCCACCAUAUGAUGAUGCCUGAAGAGCCUUGGUUUUUUG [C12G C86G C89G C104U] — higher, -1.35
- GACCAAUCUGCGCUCAGAGCUCGAGAACAUCUUCGGAUGCAGAGGAGGCAGGCUUCGGUGGCGCGAUAGCGCCAACGUCCUCAACCUGCAAUGCAUCCCACCACAUGAUGAUGCCUGAAGAGCCUUGGUUUUUUG [C12G C88G] — higher, -0.624
- GACCAAUCUGCGCUCAGAGCUCGAGAACAUCUUCGGAUGCAGAGGAGGCAGGCUUCGGUGGCGCGAUAGCGCCAACGUCCUCAACCUCCAAUGGAUCCCACCACAUGAUGAUGCCUGAAGAGCCUUGGUUUUUUG [C12G C94G] — higher, -1.02
- GACCAAUCUGCGCUCAGAGCUCGAGAACAUCUUCGGAUGCAGAGGAGGCAGGCUUCGGUGGCGCGAUAGCGCCAACGUCCUCAACCUCCAAUGGAUCCCACCACCUGAUGAUGCCUGAAGAGCCUUGGUUUUUUG [C12G C94G A105C] — lower, -4.19
- GACCAAUCUGCGCUCAGAGCUCGAGAACAUCUUCGGAUGCAGAGGAGGCAGGCUUCGGUGGCGCGAUAGCGCCAACGUCCUCAACCUCCAAUGCAUCACACCACAUGAUGAUGCCUGAAGAGCCUUGGUUUUUUG [C12G C98A] — lower, -4.17
- GACCAAUCUGCGCUCAGAGCUCGAGAACAUCUUCGGAUGCAGAGGAGGCAGGCUUCGGUGGCGCGAUAGCGCCAACGUCCUCAACCUCCAAUGCAUCUCACCACAUGAUGAUGCCUGAAGAGCCUUGGUUUUGUG [C12G C98U U133G] — higher, -1.82
- GACCAAUCUGCGCUCAGAGCUCGAGAACAUCUUCGGAUGCAGAGGAGGCAGGCUUCGGUGGCGCGAUAGCGCCAACGUCCUCAACCUCCAAUGCAUCCCACCAUAUGAUGAUGCCUGAAGAGCCUUGCUUUUAUG [C12G C104U G128C U133A] — higher, -0.738
- GACCAAUCUGCGCUCAGAGCUCGAGAACAUCUUCGGAUGCAGAGGAGGCAGGCUUCGGUGGCGCGAUAGCGCCAACGUCCUCAACCUCCAAUGCAUCCCACCACAUGAUGAUGCUUGAAGAGCCUUGGUUUUAUG [C12G C115U U133A] — higher, -0.348
